In paper doi:10.1101/2024.02.23.581399 (bioRxiv, 2024):
Non-standard residues stand in square brackets, D forms with d. No end group written: not given here. pT = C[C@@H](OP(=O)(O)O)[C@H](N)C(=O)O; pS = N[C@@H](COP(=O)(O)O)C(=O)O

Target: T1, PLK1PBD (human, UniProt P53350 370-603)
T1 construct: PLK1, human, residues 370-603 (Polo-box domain); Labelled PLK1PBD without a tag in the amylose pull-downs and the crystal structures; also called PLK1_(370-603); Polo-Box Domain; source: E. coli BL21 Gold (DE3), purified (HisTrap, SEC)
T1 sequence (P53350 370-603): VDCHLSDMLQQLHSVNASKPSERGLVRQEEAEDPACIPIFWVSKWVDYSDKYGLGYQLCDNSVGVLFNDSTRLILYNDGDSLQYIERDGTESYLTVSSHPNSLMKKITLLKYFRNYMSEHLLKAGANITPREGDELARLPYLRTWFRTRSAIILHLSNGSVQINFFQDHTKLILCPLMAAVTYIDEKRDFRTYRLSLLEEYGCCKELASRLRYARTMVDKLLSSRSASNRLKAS
Assay: crystal structure; PLK1PBD mixed with two times molar excess of phospho-peptide, sitting drop, 18°C
Settings: both partners purified

| Binder | binding result |
| --- | --- |
| ASMWS[pS]M (also called S54ph peptide; Mis18α_(S54ph); source: synthetic peptide (Peptide Synthetics)) [Mis18α_(49-55) phospho-peptide (ASMWSSphM)] | binds |
| KNIFQS[pT]MLTE (Mis18BP1, human, residues 72-82; also called T78ph peptide; Mis18BP1_(T78ph); source: synthetic peptide (Peptide Synthetics)) [Mis18BP1_(72-82) phospho-peptide (KNIFQSTphMLTE)] | binds |
